The record followed here is patent US10745460B2, “Peptides and combination of peptides for use in immunotherapy against various tumors” (Immatics Biotechnologies GmbH, priority 2015, dated 2020).

The target of the assay is HLA-A*02:01 (Homo sapiens, UniProt P04439, D140Y/D185E/D98H/E176V/E277Q/G131W/G231S/I119V/I121R/I166T/I218V/L300P/L318F/N151K/N90K/P208A/P217A/Q86G/Q94H/R138H/R169H/T345S). Briefly: MHC binding assay: UV-ligand exchange with β2m ELISA (peptide exchange yield). Conditions: binding to HLA-A*02:01 evaluated by peptide exchange yield (UV-ligand exchange, β2m ELISA). The text has this:
Candidate peptides for T cell based therapies according to the present invention were further tested for their MHC binding capacity (affinity). The individual peptide-MHC complexes were produced by UV-ligand exchange, where a UV-sensitive peptide is cleaved upon UV-irradiation, and exchanged with the peptide of interest as analyzed. Only peptide candidates that can effectively bind and stabilize the peptide-receptive MHC molecules prevent dissociation of the MHC complexes. To determine the yield of the exchange reaction, an ELISA was performed based on the detection of the light chain (β2m) of stabilized MHC complexes. The assay was performed as generally described in Rodenko et al. (Rodenko et al., 2006).
96 well MAXISorp plates (NUNC) were coated over night with 2 ug/ml streptavidin in PBS at room temperature, washed 4× and blocked for 1 h at 37° C. in 2% BSA containing blocking buffer. Refolded HLA-A*02:01/MLA-001 monomers served as standards, covering the range of 15-500 ng/ml. Peptide-MHC monomers of the UV-exchange reaction were diluted 100 fold in blocking buffer. Samples were incubated for 1 h at 37° C., washed four times, incubated with 2 ug/ml HRP conjugated anti-β2m for 1 h at 37° C., washed again and detected with TMB solution that is stopped with […]. Absorption was measured at 450 nm. Candidate peptides that show a high exchange yield (preferably higher than 50%, most preferred higher than 75%) are generally preferred for a generation and production of antibodies or fragments thereof, and/or T cell receptors or fragments thereof, as they show sufficient avidity to the MHC molecules and prevent dissociation of the MHC complexes.
On the technique in general: ELISA stands for enzyme-linked immunosorbent assay.
Turning to “123 (QTAPEEAFIKL; listed as Homo sapiens) [compound 123]”, the Peptide exchange result was “+ (≥10% = +)”.

With “124 (ALLLRLFTI; listed as Homo sapiens) [compound 124]”, the Peptide exchange result was “++ (≥20% = ++)”.

In the case of “125 (AALEVLAEV; listed as Homo sapiens) [compound 125]”, the Peptide exchange result was “+++ (≥50 = +++)”.

With “126 (QLREAFEQL; listed as Homo sapiens) [compound 126]”, the Peptide exchange result is recorded as “+++ (≥50 = +++)”.

For “128 (SILTNISEV; listed as Homo sapiens) [compound 128]”, the Peptide exchange entry was “++ (≥20% = ++)”.

For “129 (KMASKVTQV; listed as Homo sapiens) [compound 129]”, the Peptide exchange entry is given as “++ (≥20% = ++)”.

Regarding “130 (QLYGSAITL; listed as Homo sapiens) [compound 130]”, the Peptide exchange result was “+++ (≥50 = +++)”.

Turning to “131 (SLYPHFTLL; listed as Homo sapiens) [compound 131]”, the Peptide exchange result is reported as “+++ (≥50 = +++)”.

Turning to “132 (ALLNNVIEV; listed as Homo sapiens) [compound 132]”, the Peptide exchange entry is on record as “+++ (≥50 = +++)”.

Take “133 (FLDGRPLTL; listed as Homo sapiens) [compound 133]”: the Peptide exchange entry is “++ (≥20% = ++)”.

“134 (SLYKSFLQL; listed as Homo sapiens) [compound 134]”: the Peptide exchange entry is recorded as “++ (≥20% = ++)”.

“136 (LLWDAPAKC; listed as Homo sapiens) [compound 136]”: the Peptide exchange result was “+++ (≥50 = +++)”.

In the case of “137 (KLIYKDLVSV; listed as Homo sapiens) [compound 137]”, the Peptide exchange entry is reported as “++ (≥20% = ++)”.

“138 (GIINKLVTV; listed as Homo sapiens) [compound 138]”: the Peptide exchange result is reported as “++ (≥20% = ++)”.

In the case of “139 (IILENIQSL; listed as Homo sapiens) [compound 139]”, the Peptide exchange result is “+++ (≥50 = +++)”.

“140 (FLDSQITTV; listed as Homo sapiens) [compound 140]”: the Peptide exchange entry is reported as “+++ (≥50 = +++)”.

For the substance “141 (NIDINNNEL; listed as Homo sapiens) [compound 141]”, the Peptide exchange result was “++ (≥20% = ++)”.

As for “142 (LLDAAHASI; listed as Homo sapiens) [compound 142]”, the Peptide exchange entry is recorded as “++ (≥20% = ++)”.

For “143 (MLWESIMRV; listed as Homo sapiens) [compound 143]”, the Peptide exchange result is on record as “+++ (≥50 = +++)”.

Consider “144 (FLISQTPLL; listed as Homo sapiens) [compound 144]”, for which the Peptide exchange result is reported as “+++ (≥50 = +++)”.

Consider “145 (ALEEKLENV; listed as Homo sapiens) [compound 145]”, for which the Peptide exchange entry is listed as “+++ (≥50 = +++)”.

For “146 (VVAAHLAGA; listed as Homo sapiens) [compound 146]”, the Peptide exchange entry is listed as “++ (≥20% = ++)”.

As for “147 (GLLSALENV; listed as Homo sapiens) [compound 147]”, the Peptide exchange entry is listed as “+++ (≥50 = +++)”.

“148 (YLILSSHQL; listed as Homo sapiens) [compound 148]”: the Peptide exchange entry is listed as “+++ (≥50 = +++)”.

As for “149 (NMADGQLHQV; listed as Homo sapiens) [compound 149]”, the Peptide exchange result is “++ (≥20% = ++)”.

Turning to “150 (VLLDMVHSL; listed as Homo sapiens) [compound 150]”, the Peptide exchange entry is “+++ (≥50 = +++)”.

As to “151 (DISKRIQSL; listed as Homo sapiens) [compound 151]”, the Peptide exchange result is on record as “++ (≥20% = ++)”.

As to “153 (KLVELEHTL; listed as Homo sapiens) [compound 153]”, the Peptide exchange result was “+++ (≥50 = +++)”.

With “154 (AIIKEIQTV; listed as Homo sapiens) [compound 154]”, the Peptide exchange entry is on record as “++ (≥20% = ++)”.

In the case of “155 (TLDSYLKAV; listed as Homo sapiens) [compound 155]”, the Peptide exchange result is reported as “++ (≥20% = ++)”.

“157 (ILQDGQFLV; listed as Homo sapiens) [compound 157]”: the Peptide exchange entry was “++ (≥20% = ++)”.

As to “158 (YLDPLWHQL; listed as Homo sapiens) [compound 158]”, the Peptide exchange result is listed as “+++ (≥50 = +++)”.

Regarding “159 (QLGPVPVTI; listed as Homo sapiens) [compound 159]”, the Peptide exchange result was “+++ (≥50 = +++)”.

“160 (TLQEWLTEV; listed as Homo sapiens) [compound 160]”: the Peptide exchange entry is listed as “+++ (≥50 = +++)”.

Consider “161 (NLLDENVCL; listed as Homo sapiens) [compound 161]”, for which the Peptide exchange entry is “++++ (≥75% = ++++)”.

With “162 (GLLGNLLTSL; listed as Homo sapiens) [compound 162]”, the Peptide exchange result is given as “+++ (≥50 = +++)”.

On to “163 (GLEERLYTA; listed as Homo sapiens) [compound 163]”, for which the Peptide exchange entry was “++ (≥20% = ++)”.

On to “164 (MLIIRVPSV; listed as Homo sapiens) [compound 164]”, for which the Peptide exchange entry is given as “+++ (≥50 = +++)”.

As for “165 (SLLDYEVSI; listed as Homo sapiens) [compound 165]”, the Peptide exchange result was “+++ (≥50 = +++)”.

Turning to “166 (LLGDSSFFL; listed as Homo sapiens) [compound 166]”, the Peptide exchange entry is reported as “+++ (≥50 = +++)”.

Turning to “167 (LVVDEGSLVSV; listed as Homo sapiens) [compound 167]”, the Peptide exchange result was “+++ (≥50 = +++)”.

Regarding “168 (VIFEGEPMYL; listed as Homo sapiens) [compound 168]”, the Peptide exchange entry is on record as “+++ (≥50 = +++)”.

Regarding “169 (ALADLSVAV; listed as Homo sapiens) [compound 169]”, the Peptide exchange entry is listed as “+++ (≥50 = +++)”.

For the substance “170 (FIAAVVEKV; listed as Homo sapiens) [compound 170]”, the Peptide exchange entry is on record as “++ (≥20% = ++)”.

As for “171 (LLLLDVPTA; listed as Homo sapiens) [compound 171]”, the Peptide exchange entry is “++ (≥20% = ++)”.

Consider “173 (RLIDIYKNV; listed as Homo sapiens) [compound 173]”, for which the Peptide exchange result is reported as “+++ (≥50 = +++)”.

On to “174 (ALYSGDLHAA; listed as Homo sapiens) [compound 174]”, for which the Peptide exchange entry is given as “++ (≥20% = ++)”.

Regarding “175 (SLLDLVQSL; listed as Homo sapiens) [compound 175]”, the Peptide exchange entry is “+++ (≥50 = +++)”.

With “176 (VQSGLRILL; listed as Homo sapiens) [compound 176]”, the Peptide exchange result is listed as “++ (≥20% = ++)”.

Regarding “177 (ALINVLNAL; listed as Homo sapiens) [compound 177]”, the Peptide exchange result is “+++ (≥50 = +++)”.

Consider “178 (SLVSWQLLL; listed as Homo sapiens) [compound 178]”, for which the Peptide exchange entry was “++++ (≥75% = ++++)”.

On to “179 (TLGEIIKGV; listed as Homo sapiens) [compound 179]”, for which the Peptide exchange result was “+++ (≥50 = +++)”.

Turning to “180 (RLYEEEIRI; listed as Homo sapiens) [compound 180]”, the Peptide exchange entry is listed as “+++ (≥50 = +++)”.

Regarding “181 (LLWAPTAQA; listed as Homo sapiens) [compound 181]”, the Peptide exchange result is reported as “+++ (≥50 = +++)”.

For the substance “182 (GLQDGFQITV; listed as Homo sapiens) [compound 182]”, the Peptide exchange result is on record as “+++ (≥50 = +++)”.

As to “183 (ALSYILPYL; listed as Homo sapiens) [compound 183]”, the Peptide exchange entry is “+++ (≥50 = +++)”.

Consider “184 (ALDSTIAHL; listed as Homo sapiens) [compound 184]”, for which the Peptide exchange result is given as “++ (≥20% = ++)”.

For “185 (TLYQGLPAEV; listed as Homo sapiens) [compound 185]”, the Peptide exchange result is on record as “++ (≥20% = ++)”.

“187 (SILKEDPFL; listed as Homo sapiens) [compound 187]”: the Peptide exchange entry is “++ (≥20% = ++)”.

In the case of “188 (VLGEEQEGV; listed as Homo sapiens) [compound 188]”, the Peptide exchange result is “++ (≥20% = ++)”.

“190 (SLSTELFKV; listed as Homo sapiens) [compound 190]”: the Peptide exchange result is given as “+++ (≥50 = +++)”.

As to “191 (AAIEIFEKV; listed as Homo sapiens) [compound 191]”, the Peptide exchange result was “+++ (≥50 = +++)”.

For “192 (TLLPSSGLVTL; listed as Homo sapiens) [compound 192]”, the Peptide exchange result is “++ (≥20% = ++)”.

In the case of “193 (ALFHMNILL; listed as Homo sapiens) [compound 193]”, the Peptide exchange result is listed as “+++ (≥50 = +++)”.

In the case of “194 (KLLEEVQLL; listed as Homo sapiens) [compound 194]”, the Peptide exchange entry is listed as “++ (≥20% = ++)”.
